In patent US20170343556A1 (VENTANA MEDICAL SYSTEMS, published 2017):

Biological target: T1, human PD-L1 (Programmed death ligand-1) (human, UniProt Q9NZQ7 19-290)
T1 construct: whole, on cells; Endogenous PD-L1 in fixed tissue sections, detected by immunohistochemistry; No recombinant construct was used; also called B7-H1; PDCD1L1
Test: immunohistochemistry on FFPE tissue sections, OptiView DAB detection
Protocol: VENTANA PD-L1 (SP263) is a rabbit monoclonal primary antibody which binds to PD-L1 in paraffin-embedded tissue sections. The specific antibody can be localized using a haptenated secondary antibody followed by a multimer anti-hapten-HRP conjugate (OptiView DAB IHC Detection Kit, Cat. No. 760-700). The specific antibody-enzyme complex is then visualized with a precipitating enzyme reaction product. Each step is incubated for a precise time and temperature. At the end of each incubation step, the VENTANA BENCHMARK automated slide stainer washes the sections to stop the reaction and to remove unbound material that would hinder the desired reaction in subsequent steps. It also applies LCS (Cat. No. 650-210/Cat. No. 650-010), which minimizes evaporation of the aqueous reagents from the specimen slide. In addition to staining with VENTANA PD-L1 (SP263), a second slide is stained with a rabbit monoclonal negative control Ig (Cat. No. 790-4795) to assess background staining. [0113] IB. Specimen Preparation

T1 sequence (Q9NZQ7 19-290): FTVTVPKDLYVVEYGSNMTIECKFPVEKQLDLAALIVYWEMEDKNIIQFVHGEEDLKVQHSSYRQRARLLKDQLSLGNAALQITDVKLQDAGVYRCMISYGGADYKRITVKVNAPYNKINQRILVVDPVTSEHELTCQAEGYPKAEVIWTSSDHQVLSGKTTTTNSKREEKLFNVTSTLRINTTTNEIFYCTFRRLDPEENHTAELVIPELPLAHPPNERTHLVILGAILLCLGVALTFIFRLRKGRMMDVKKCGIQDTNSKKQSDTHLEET

B1: VENTANA PD-L1 (SP263) Rabbit Monoclonal Antibody (antibody, V domains shown)
VH: QSLEESGGRLVTPGTPLTLTCTASGFSLSNHAISWVRQAPGKGLEWIGTINSDTHTYYATWPKGRFTISKTSSTTVDLKMTSPTTEDTATYFCARRIFSSSNIWGPGTLVTVSS
VL: AIVMTQTSSPVSAVVGGTVAINCQASQSIYNNNWLSWFQQKPGQPPKLLIYLASTLASGVPSRFKGSGSGTQFTLTISDVVCDDAATYYCIGGESSNNDGIAFGGGTEVVVK
notes: Rabbit monoclonal primary antibody with a kappa light chain; also called SP263 antibody; anti-PD-L1
binding result: binds
